T1: RIP15 (Mus musculus, UniProt Q60644 SEQ:1-446)
T1 chain: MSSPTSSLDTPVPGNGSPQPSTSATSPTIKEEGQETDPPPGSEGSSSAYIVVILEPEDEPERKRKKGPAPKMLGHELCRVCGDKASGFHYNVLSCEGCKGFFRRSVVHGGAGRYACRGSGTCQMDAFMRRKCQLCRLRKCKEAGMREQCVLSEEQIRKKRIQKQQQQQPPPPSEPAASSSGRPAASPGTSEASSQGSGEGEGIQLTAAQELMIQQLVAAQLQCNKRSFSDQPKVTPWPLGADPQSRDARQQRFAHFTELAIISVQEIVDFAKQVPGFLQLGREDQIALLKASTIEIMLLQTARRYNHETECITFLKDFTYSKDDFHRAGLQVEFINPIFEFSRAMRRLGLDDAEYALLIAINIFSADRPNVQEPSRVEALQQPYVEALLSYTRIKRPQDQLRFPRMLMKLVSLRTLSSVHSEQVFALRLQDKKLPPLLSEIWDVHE

B1: hsp27 EcRE (dsDNA)
DNA 1: CTAGACAAGGGTTCAATGCACTTGTCCATCG
DNA 2: CGATGGACAAGTGCATTGAACCCTTGTCTAG
B2: betaRARE (dsDNA)
DNA 1: GATCCGGGTAGGGTTCACCGAAAGTTCACTCGA
DNA 2: TCGAGTGAACTTTCGGTGAACCCTACCCGGATC

How the values were obtained:
[1] = target: T2, RIP14-1/RXRalpha heterodimer (Mus musculus / Homo sapiens, UniProt Q60641-2;P19793 Q60641-2:1-484,P19793:1-462); assay: EMSA; competition with 50-fold unlabeled EcRE (specific) and AP1 (nonspecific) tested; 40 mM KCl, 2.5 mM MgCl2, pH 8.0, room temp; conditions: tags: human RXRalpha expressed in E. coli; label: 32P end label
Experimental: (§1) In panel A, RIP14-1 without (lane 2) or with RXR (lanes 3-5) was incubated with the hsp27 promoter (EcRE) end-labeled with [³²P]ATP. In panel B, RIP15 (lanes 2-5) and RIP14-1 (lanes 9-12) without (lanes 2 and 9) or with (lanes 3-5 and 10-12) RXR were incubated with βRARE end-labeled with [³²P]ATP. In both cases, a 50-fold molar excess of unlabeled specific (sp; EcRE, lane A4 and βRARE, lanes B4 and B11) or nonspecific (ns; AP1, lanes A5, B5, and B12) oligomers were added with the labeled probe. Incubations with probe alone are shown in lanes A1, B1, and B8. Cell lysates used for in vitro translation were also incubated with the probes without (lanes A6 and B6) or with (lanes A7 and B7) RXR. RIP14-2 and the RIP14-1 chimeras containing a four amino acid insertion in the D domain (RIP14C) were also incubated with βRARE and RXR as shown in lanes B13 and B14, respectively. Specific bands are indicated by arrows.
(§2) To identify DNA sequences recognized by each orphan, in vitro translated proteins were used for gel shift assays. Because of their strong sequence similarity to the ecdysone receptor, a well studied ecdysone response element (EcRE) from the Drosophila hsp27 promoter (Riddilough et al., EMBO J. 6:3729-3734, 1987) was tested for binding to both orphans, in the presence and absence of RXR. […]

[2] = target: RIP15/RXRalpha heterodimer (Mus musculus / Homo sapiens, UniProt Q60644;P19793 Q60644:1-446,P19793:1-462); assay: EMSA; with RXR; conditions: tags: human RXRalpha expressed in E. coli; label: 32P end label
Experimental: (§3) The binding of the RIP14-2 isoform to this element was weaker than that of RIP14-1 when similar amounts of RIP14 proteins were used. […] Several other DNA elements were tested in the gel shift assay, including the retinoic acid response element from the promoter of the human RARβ2 isoform (βRARE) (de The et al., Nature 343:177-180, 1990). In the presence of RXR, the βRARE was bound by both the RIP14 isoforms and RIP15 (FIG. 8, panel B). Again, the binding of the RIP14-2/RXR heterodimer was weaker than the RIP14-1/RXR heterodimer when a similar amount of RIP14 proteins were used (FIG. 8, panel B, lanes 10 and 14).
(§4) RIP14 and RIP15 proteins were produced by in vitro translation (Promega TNT, Madison, Wis.) using expression vectors containing the RIP genes following a T7 promoter. To generate full length RIP14-2 constructs, fragments from RIP14-1 clone No. 15 containing regions from the middle of the E domain to the 3′ end replaced the corresponding regions of RIP14-2 Clones No. 3 or 12, respectively. Sequences were confirmed by DNA sequencing. Human RXRα protein was expressed in E. coli using a bacterial expression vector based on the bacteriophage T7 promoter (Carter et al., Mol. Cell. Biol. in press., 1994). […]

[3] = target: T1, RIP15; assay: EMSA; without RXR; conditions: label: 32P end label
Experimental: as §3, §4

[4] = target: T2, RIP14-1/RXRalpha heterodimer; assay: EMSA; competition with 50-fold unlabeled betaRARE (specific) and AP1 (nonspecific) tested; conditions: tags: human RXRalpha expressed in E. coli; label: 32P end label
Experimental: as §1, §2

T2 sequence (Q60641 other isoform, or with tags, fused parts or gaps, chain 1 of 2): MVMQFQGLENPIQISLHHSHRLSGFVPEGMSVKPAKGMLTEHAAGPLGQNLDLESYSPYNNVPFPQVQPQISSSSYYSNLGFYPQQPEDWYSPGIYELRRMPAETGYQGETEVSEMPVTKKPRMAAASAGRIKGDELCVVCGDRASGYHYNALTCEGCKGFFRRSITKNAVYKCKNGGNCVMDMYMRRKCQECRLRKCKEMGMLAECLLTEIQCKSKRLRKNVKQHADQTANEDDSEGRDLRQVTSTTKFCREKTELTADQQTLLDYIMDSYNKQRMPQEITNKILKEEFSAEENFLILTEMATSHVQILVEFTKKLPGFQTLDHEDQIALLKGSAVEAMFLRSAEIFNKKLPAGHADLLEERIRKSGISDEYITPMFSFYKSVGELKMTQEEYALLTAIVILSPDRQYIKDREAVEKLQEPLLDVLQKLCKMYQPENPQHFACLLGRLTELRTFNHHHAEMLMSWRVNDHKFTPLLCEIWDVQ
T2 sequence (P19793 whole entry, chain 2 of 2): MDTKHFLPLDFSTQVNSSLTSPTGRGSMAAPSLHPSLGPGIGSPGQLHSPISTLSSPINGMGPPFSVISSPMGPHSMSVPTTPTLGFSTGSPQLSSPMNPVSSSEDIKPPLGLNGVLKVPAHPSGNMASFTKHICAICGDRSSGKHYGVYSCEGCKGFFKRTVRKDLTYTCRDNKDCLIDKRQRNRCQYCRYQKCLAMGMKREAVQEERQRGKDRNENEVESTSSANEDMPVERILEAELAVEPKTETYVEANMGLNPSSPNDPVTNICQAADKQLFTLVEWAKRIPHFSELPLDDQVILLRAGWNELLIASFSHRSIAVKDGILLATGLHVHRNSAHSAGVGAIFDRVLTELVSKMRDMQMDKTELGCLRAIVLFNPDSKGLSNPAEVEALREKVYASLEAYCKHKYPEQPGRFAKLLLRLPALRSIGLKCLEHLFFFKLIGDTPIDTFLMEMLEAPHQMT
Sequence of RIP15/RXRalpha heterodimer (P19793 whole entry, canonical isoform, one chain of several): as the sequence (P19793 whole entry, chain 2 of 2) above

Binder	binding result [1]	binding result [2]	binding result [3]	binding result [4]
B1	binds	no binding	no binding	–
B2	–	–	–	binds

Source: patent US20060287503, “Retinoid X receptor-interacting polypeptides and related molecules and methods” (published 2006)
